Our source for the percent reduction of co-precipitation against Flag-CLIC4 wild type values is publication PMC6706427.

This assay addresses Flag-CLIC4-Y104A (dog). The assay can be described thus: co-IP; lysates of co-transfected 293T cells in RIPA buffer plus 0.5% CHAPS; anti-Flag or control antibody; Protein-G Dynabeads; 4 °C overnight; 4 washes; blots quantified with the Odyssey system, three independent repeats.

“mCherry-Tsg101 (from UniProt Q99816 1-390) (natural protein)”: the percent reduction of co-precipitation against Flag-CLIC4 wild type was 40.4 % reduced.
